In US20040110231A1 (Takeda / Millennium, published 2004):
Where no end group is shown, it is not given here. [ ]: non-standard residue; d: D form. Met(O) = CS(=O)CC[C@H](N)C(=O)O

T1: human GPR7 (human, UniProt P48145 1-328)
T1 sequence: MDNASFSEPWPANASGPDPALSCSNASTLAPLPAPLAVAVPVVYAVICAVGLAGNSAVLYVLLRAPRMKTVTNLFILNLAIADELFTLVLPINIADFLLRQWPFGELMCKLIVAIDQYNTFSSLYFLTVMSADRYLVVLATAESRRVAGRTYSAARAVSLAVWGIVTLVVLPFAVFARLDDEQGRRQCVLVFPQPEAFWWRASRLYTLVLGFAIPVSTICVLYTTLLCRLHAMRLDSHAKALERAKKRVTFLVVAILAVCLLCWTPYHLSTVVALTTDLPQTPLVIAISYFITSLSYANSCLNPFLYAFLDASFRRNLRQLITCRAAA

B1: mouse homolog to hGPR8L (1-30) (peptide)
peptide: WYKHVASPRYHTVGRASGLLMGLRRSPYQW
notes: also called mouse homologue of the GPR8 ligand peptide (30 residues)
B2: rat homolog to hGPR8L (1-30) (peptide)
peptide: WYKHVASPRYHTVGRASGLLMGLRRSPYLW
notes: also called rat homologue of the GPR8 ligand peptide (30 residues)
B3: porcine homolog to hGPR8L (1-30) (peptide)
peptide: WYKHTASPRYHTVGRAAGLLMGLRRSPYMW
notes: also called porcine homologue of the GPR8 ligand peptide (30 residues)
B4: mouse GPR8 ligand (1-23) (peptide)
peptide: WYKHVASPRYHTVGRASGLLMGL
notes: also called mouse homolog to hGPR8L (1-23)
B5: rat GPR8 ligand (1-23) (peptide)
peptide: WYKHVASPRYHTVGRASGLLMGL
notes: also called rat homolog to hGPR8L (1-23)

Columns and labels:
human GPR8 = human GPR8 (human, UniProt P48146 1-333); assay: cell-based or functional assay
human GPR7 [1] = target: T1, human GPR7; assay: cell-based or functional assay
human GPR7 [2] = target: T1, human GPR7; assay: cell-based or functional assay; remark: listed apart in the source
human GPR7 [3] = target: T1, human GPR7; assay: competition with [125I-Tyr10]-hGPR8L (1-23) as tracer, membrane fraction of human GPR7-expressing CHO cells
Experimental: The thus prepared cell membrane fraction was diluted in various concentrations with an assay buffer (25 mM Tris-HCl, 5 mM EDTA, 0.05% CHAPS (3-[(3-choramidopropyl)dimethylammonio]-1-propanesulfonate), 0.1% BSA, 0.5 mM PMSF, 1 μg/ml pepstatin, 20 μg/ml leupeptin and 4 μg/ml E-64, pH 7.4). Then, a 200 μl aliquot of the dilution was dispensed into a propylene-made testing tube (Falcon 2053). In order to assay for the total binding, 2 μl of DMSO and 2 μl of 8 nM [¹²⁵I-Tyr¹⁰]-hGPR8L (1-23) was added to the membrane fraction solution. Also, the non-specific binding was assayed by adding 2 μl of a DMSO solution of 1 mM hGPR8L (1-23) and 2 μl of 8 nM [¹²⁵I-Tyr¹⁰]-hGPR8L (1-23) to the membrane fraction solution. After reacting at 25° C. for 75 minutes, the reaction solution was suction-filtrated through a polyethyleneimine-treated Whatman glass filter (GF-F), and the filter was washed twice with ˜1.5 ml of a wash buffer (25 mM Tris-HCl, 5 mM EDTA, 0.05% CHAPS, 0.1% BSA, pH 7.4). After the filtration, the residual radioactivity remained on the filter paper was measured with a γ-counter, and the specific binding was estimated by subtracting the non-specific binding from the total binding.
It could also be verified that the binding inhibition of [¹²⁵I-Tyr¹⁰]-hGPR8L (1-23) against the human GPR7-expressed CHO cell membrane fraction was noted as described above, when rat and mouse homologs (SEQ ID NO:73 and SEQ ID NO:91) to hGPR8L (1-23) and porcine, rat and mouse homologs (SEQ ID NO:57, SEQ ID NO:74 and SEQ ID NO:92) to hGPR8L (1-30).

Chain of human GPR8 (P48146 whole entry): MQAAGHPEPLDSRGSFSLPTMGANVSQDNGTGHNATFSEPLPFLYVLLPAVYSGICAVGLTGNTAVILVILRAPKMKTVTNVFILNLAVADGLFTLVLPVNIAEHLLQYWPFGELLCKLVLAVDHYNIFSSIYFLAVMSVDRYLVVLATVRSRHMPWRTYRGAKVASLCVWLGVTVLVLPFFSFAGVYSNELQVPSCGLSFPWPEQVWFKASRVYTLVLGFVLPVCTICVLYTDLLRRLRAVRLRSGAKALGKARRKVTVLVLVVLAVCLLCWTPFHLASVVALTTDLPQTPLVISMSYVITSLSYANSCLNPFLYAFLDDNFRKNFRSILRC

Row | Binder | GTPγ S binding promoting activity (EC50 nM) (human GPR8) [nM] | GTPγS-Binding promoting activity (EC50 nM) (human GPR7 [1]) [nM] | intracellular cAMP production suppressing activity (IC50) (human GPR7 [2]) [nM] | binding result (human GPR7 [3])
1 | WYKHVASPRYHTVGRAAGLLXGL (Met (O) (methionine sulfoxide) at position 21) [oxidized human GPR8 ligand (1-23)] | 1.4 | 1.6 | – | –
2 | WYKHTASPRYHTVGRAAGLL[Met(O)]GL [oxidized porcine GPR8 ligand (1-23)] | 0.73 | 1.2 | – | –
3 | XYKHVASPRYHTVGRAAGLLMGL (N-terminal Fmoc (N-9-fluorenylmethoxycarbonyl) on Trp1) [Fmoc-human GPR8 ligand (1-23)] | 240 | 6.6 | – | –
4 | RYHTVGRAAGLLMGL [human GPR8 ligand (9-23)] | 4200 | > 10000 | – | –
5 | WYKHVASPRYHTVGRAAGLLMGL [human GPR8 ligand (1-23)] | – | 0.74 | 0.025 | –
6 | XYKHVASPRYHTVGRAAGLLMGL (D-Trp at position 1) [[D-Trp1]-human GPR8 ligand (1-23)] | 7.1 | 2.3 | – | –
7 | {3‑indolepropanoyl}-YKHVASPRYHTVGRAAGLLMGL [[N-3-Indolepropanyl-Tyr2]-human GPR8 ligand (2-23)] | 5 | 0.85 | – | –
8 | HVASPRYHTVGRAAGLLMGL [human GPR8 ligand (4-23)] | 6700 | > 10000 | – | –
9 | WYKHVASPRYHTVGRAAGLLMGLRRSPYLW [human GPR8 ligand (1-30)] | – | 0.67 | – | –
10 | B1 | – | – | – | binds
11 | B2 | – | – | – | binds
12 | B3 | – | – | – | binds
13 | Ac-YKHVASPRYHTVGRAAGLLMGL [[N-Acetyl-Tyr2]-human GPR8 ligand (2-23)] | 7200 | 7000 | – | –
14 | WYKHVASPRYHTVGRAAGLL [human GPR8 ligand (1-20)] | 0.86 | 0.88 | – | –
15 | B4 | – | – | – | binds
16 | B5 | – | – | – | binds
17 | WYKHTASPRYHTVGRAAGLLMGL [porcine GPR8 ligand (1-23)] | 1.5 | 0.35 | – | –
18 | YKHVASPRYHTVGRAAGLLMGL [human GPR8 ligand (2-23)] | 3900 | 7410 | – | –
19 | XYKHVASPRYHTVGRAAGLLMGL (Nα-acetyl on Trp1) [[Nα-Acetyl-Trp1]-human GPR8 ligand (1-23)] | 14 | 1.5 | – | –
20 | WYKHVASPRYHTVGRAAG [human GPR8 ligand (1-18)] | > 10000 | 6200 | – | –
21 | WYKHVASPRYHTVGRAAGL [human GPR8 ligand (1-19)] | 1000 | 84 | – | –
